Measurements reported in PMC7764960, “Nucleus Accumbens-Associated Protein 1 Binds DNA Directly through the BEN Domain in a Sequence-Specific Manner”.

T1: NAC1 (322-485) (Homo sapiens, UniProt Q96RE7 322-485)
T1 sequence: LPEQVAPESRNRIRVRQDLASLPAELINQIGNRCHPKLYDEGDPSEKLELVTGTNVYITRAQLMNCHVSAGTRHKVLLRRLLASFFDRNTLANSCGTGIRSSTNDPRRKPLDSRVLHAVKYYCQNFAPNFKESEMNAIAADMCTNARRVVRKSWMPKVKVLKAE

T2: GST-NAC1 (Homo sapiens, UniProt Q96RE7 2-527)
T2 sequence: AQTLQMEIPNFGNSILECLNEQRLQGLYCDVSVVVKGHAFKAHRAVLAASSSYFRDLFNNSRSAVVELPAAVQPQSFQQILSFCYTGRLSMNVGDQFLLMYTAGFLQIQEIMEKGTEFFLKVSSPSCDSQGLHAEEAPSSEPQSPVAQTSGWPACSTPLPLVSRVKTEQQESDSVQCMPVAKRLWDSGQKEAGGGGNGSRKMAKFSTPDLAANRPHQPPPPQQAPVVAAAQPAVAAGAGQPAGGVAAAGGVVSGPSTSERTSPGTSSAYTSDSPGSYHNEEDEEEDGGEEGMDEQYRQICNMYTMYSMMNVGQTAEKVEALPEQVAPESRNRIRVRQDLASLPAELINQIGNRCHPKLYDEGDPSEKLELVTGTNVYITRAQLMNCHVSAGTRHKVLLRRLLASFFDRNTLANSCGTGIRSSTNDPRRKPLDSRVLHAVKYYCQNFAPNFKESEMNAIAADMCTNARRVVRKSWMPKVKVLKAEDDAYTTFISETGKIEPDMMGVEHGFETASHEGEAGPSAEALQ

B1: de novo motif 2 (dsDNA)
DNA 1: AACCCCGCCCCAA
DNA 2: TTGGGGCGGGGTT
B2: Biotin-GP1 (dsDNA)
DNA 1: TGTGTGTGTATGCATGTATGTATTTATT
DNA 2: AATAAATACATACATGCATACACACACA
B3: GP1 14-mer dsDNA (dsDNA)
DNA 1: GTATGCATGTATGT
DNA 2: ACATACATGCATAC
B4: Biotin-GP1 5'-mut (dsDNA)
DNA 1: TGTGTGTGTCATCATGTATGTATTTATT
DNA 2: AATAAATACATACATGATGACACACACA
B5: de novo motif 1 (dsDNA)
DNA 1: AACCGCCGCCAA
DNA 2: TTGGCGGCGGTT
B6: Biotin-GP1 3'-mut (dsDNA)
DNA 1: TGTGTGTGTATGCATGACGGTATTTATT
DNA 2: AATAAATACCGTCATGCATACACACACA

Assays:
NAC1 (322-485) [1] = molecular target: T1, NAC1 (322-485); experiment: ITC; single event; Table S2 prints 0.83; ITC: 20 mM HEPES pH 7.0, 0.1 M NaCl, 1 mM TCEP, 20 C (Fig 2 legend says 25 C); pull-down: 4 C with 10 ug poly(dI/dC), buffer not stated; NMR 298 K; details: protein: recombinant; tags: His (pET28HisTEV); blunt
GST-NAC1 = molecular target: T2, GST-NAC1; experiment: pull-down; poly(dI/dC); ITC: 20 mM HEPES pH 7.0, 0.1 M NaCl, 1 mM TCEP, 20 C (Fig 2 legend says 25 C); pull-down: 4 C with 10 ug poly(dI/dC), buffer not stated; NMR 298 K; details: protein: recombinant; tags: GST N-term; chain copies: 2; label: 5' biotin on sense strand; blunt
NAC1 (322-485) [2] = molecular target: T1, NAC1 (322-485); experiment: ITC; first of two sequential events (Kd1); ITC: 20 mM HEPES pH 7.0, 0.1 M NaCl, 1 mM TCEP, 20 C (Fig 2 legend says 25 C); pull-down: 4 C with 10 ug poly(dI/dC), buffer not stated; NMR 298 K; details: protein: recombinant; tags: His (pET28HisTEV); blunt
NAC1 (322-485) [3] = molecular target: T1, NAC1 (322-485); experiment: ITC; single event; ITC: 20 mM HEPES pH 7.0, 0.1 M NaCl, 1 mM TCEP, 20 C (Fig 2 legend says 25 C); pull-down: 4 C with 10 ug poly(dI/dC), buffer not stated; NMR 298 K; details: protein: recombinant; tags: His (pET28HisTEV); blunt

| Binder | binding result (GST-NAC1) | other results |
| --- | --- | --- |
| B1 |  | Kd (NAC1 (322-485) [1]): 820 nM |
| B2 | binds |  |
| B3 |  | Kd (NAC1 (322-485) [2]): 160 nM |
| B4 | binds |  |
| B5 |  | Kd (NAC1 (322-485) [3]): 3000 nM |
| B6 | binds |  |
